pKd: −log10 of the molar value.

For one test, the target named is HLA-A*31:01. As to the kind of experiment: IEDB peptide-MHC binding, purified MHC/competitive/radioactivity; filed as Kd, often an IC50 or EC50 that approximates it; ≥ and ≤ were set here for values at or beyond the usual limits of such assays. Particulars: source organism: Vaccinia virus WR.
For orientation: pKd means the negative decadic logarithm of the Kd, by convention in mol/L. Consider SSVQLSNNKY, for which the pKd was 5.54.

Consider NILGGVLHTK, for which the pKd is 5.74.

As to EVGSIRCVKY, the pKd is no more than 4.33.

Another test deals with HLA-A*03:01. The test is described as above. Particulars: source organism: Mammarenavirus guanaritoense.
For the sequence KTAVNMLTH, the pKd is 8.00.

The same test, now with this note: source organism: Mammarenavirus juninense.
Take MVGLFSNNPH: the pKd is no more than 4.52.

The test is the same for the next values; noted with them: source organism: SARS coronavirus Tor2.
As for SAQCFKMFYK, the pKd was 7.74.

As to NQVIVNNLDK, the pKd is no more than 4.54.

For STCFKLMLK, the pKd is 9.09.

For KSKSFNHVLK, the pKd was 8.76.

Consider AAAYFVGYLK, for which the pKd was 8.03.

Still in this test, the particulars now being: source organism: Vaccinia virus WR.
For TILDDNLYK, the negative logarithm of the Kd (pKd) was 6.41.

Turning to PLFDFVNEKY, the pKd was no more than 4.15.

Consider NMRDLIVTFR, for which the pKd was 4.98.

In the case of QLPKRGVRVR, the pKd was no more than 4.65.

Consider SFSNTIQSY, for which the pKd was 4.93.

With DAKNDDWKK, the pKd was 5.08.

In the case of KSDNIINIGY, the pKd is 6.97.

KFGKNHIHR: the pKd is 4.91.

FSTSAADIKR: the pKd is 4.74.

Consider DFDNLIGVR, for which the negative logarithm of the Kd (pKd) was no more than 4.11.

As to HIVCSKTVK, the pKd was 6.54.

For SIKDVIHDY, the pKd was 5.55.

As for YLSTFNMWR, the pKd is 6.70.

For the sequence TIPIGMQFDK, the pKd was 5.22.

As for STYSDICSK, the pKd was 7.63.

As to YIFPGDKTSY, the pKd is 6.59.

With SQIFNIISY, the pKd is 6.17.

DTSNNIAEY: the pKd was no more than 4.11.

In the case of TSMMVILPDK, the negative-log Kd (pKd) was 6.85.

As to SSVQLSNNKY, the pKd was 5.33.

As for NILGGVLHTK, the negative-log Kd (pKd) is 7.41.

In the case of EVGSIRCVKY, the pKd is no more than 4.15.

Another test addresses HLA-A*02:02. The description is as above. Particulars: source organism: SARS coronavirus Tor2.
TLLCVLAALV: the pKd was 8.34.

As for FLYIIKLVFL, the pKd is 8.14.

Staying with this test, now noted: source organism: Vaccinia virus WR.
NLETYTRPEI: the pKd was 6.27.

Turning to WLRAKRKPAM, the pKd is 5.33.

For the sequence SQAKKPEVRI, the pKd was 4.97.

With CVSNLDISSV, the pKd was 7.29.

For the sequence TINVNSLAL, the pKd was 5.70.

YTFAISYCRA: the pKd is 6.49.

Turning to ATCALVSDCA, the pKd is no more than 4.46.

For KIDILQMREI, the pKd is 5.89.

Take RLRYNLCKYL: the pKd is 6.58.

NLLEQLIENI: the pKd is 6.08.

Consider LMELPVKTDI, for which the pKd was 5.82.

For the sequence NVSRVVECLT, the pKd is 5.33.

As for YIALCKVTV, the pKd is 7.91.

Turning to FTILEYLYIM, the pKd was 6.45.

Take YVGDTSMMVI: the pKd was 6.39.

For IMEIVSHLRA, the pKd was 6.02.

Regarding KVTVPTNDHI, the pKd was 5.33.

As for NVQSLIKFI, the negative logarithm of the Kd (pKd) was 4.89.

A further test has as its target HLA-A*68:01. The test is described as above. Particulars: source organism: Mammarenavirus guanaritoense.
For the sequence KTAVNMLTH, the negative logarithm of the Kd (pKd) was no more than 4.35.

Still in this test, the particulars now being: source organism: Mammarenavirus juninense.
On to MVGLFSNNPH, for which the pKd was 7.30.

The same test, now with this note: source organism: SARS coronavirus Tor2.
SAQCFKMFYK: the pKd is 7.52.

As for NQVIVNNLDK, the pKd is 4.87.

Regarding STCFKLMLK, the pKd is 8.78.

KSKSFNHVLK: the pKd is 5.44.

Consider AAAYFVGYLK, for which the pKd was 8.97.

The same test, now with this note: source organism: Vaccinia virus WR.
As for TILDDNLYK, the pKd was 5.93.

As to PLFDFVNEKY, the pKd is no more than 4.15.

NMRDLIVTFR: the negative logarithm of the Kd (pKd) was 7.94.

QLPKRGVRVR: the pKd is no more than 4.70.

Take SFSNTIQSY: the pKd was 4.98.

In the case of DAKNDDWKK, the pKd is 6.98.

Regarding KSDNIINIGY, the pKd is 5.53.

As to KFGKNHIHR, the pKd is no more than 4.31.

Consider FSTSAADIKR, for which the negative-log Kd (pKd) is 7.78.

DFDNLIGVR: the negative logarithm of the Kd (pKd) was 4.97.

As for HIVCSKTVK, the negative logarithm of the Kd (pKd) is 6.93.

In the case of SIKDVIHDY, the pKd was 5.45.

With YLSTFNMWR, the pKd was 8.47.

TIPIGMQFDK: the pKd was 7.42.

On to STYSDICSK, for which the pKd is 8.69.

As to YIFPGDKTSY, the pKd was 7.39.

Take SQIFNIISY: the pKd was 6.80.

As for DTSNNIAEY, the pKd is 8.56.

Turning to TSMMVILPDK, the pKd is 7.57.

On to SSVQLSNNKY, for which the pKd was 7.18.

For NILGGVLHTK, the pKd is 7.70.

As for EVGSIRCVKY, the pKd was 5.82.

The target in the next test is HLA-A*02:03. Described as above. Particulars: source organism: Dengue virus 1 Brazil/97-11/1997.
Turning to SLIGLTARA, the pKd was 8.38.

The test is the same for the next values; noted with them: source organism: Dengue virus 4 Dominica/814669/1981.
Consider KMFESTYRGA, for which the pKd is 7.98.

The test is the same for the next values; noted with them: source organism: Dengue virus 4 Philippines/H241/1956.
On to LIASLVMLLV, for which the pKd was 7.19.

As for ILNAHEDGV, the pKd is 7.03.

For the sequence SLGLILLKMV, the pKd was 7.24.

Staying with this test, now noted: source organism: Homo sapiens.
Take FMECNLNELV: the negative logarithm of the Kd (pKd) was 7.15.

The test is the same for the next values; noted with them: source organism: SARS coronavirus Tor2.
Regarding TLLCVLAALV, the pKd is 7.11.

For the sequence FLYIIKLVFL, the pKd is 7.65.

The same test, now with this note: source organism: Vaccinia virus WR.
Consider NLETYTRPEI, for which the pKd was 5.82.

In the case of WLRAKRKPAM, the pKd was no more than 4.70.

Consider SQAKKPEVRI, for which the pKd was 5.63.

On to CVSNLDISSV, for which the pKd is 8.64.

As for TINVNSLAL, the pKd was 5.81.

Take YTFAISYCRA: the pKd is 7.42.

ATCALVSDCA: the negative logarithm of the Kd (pKd) was no more than 4.63.

In the case of KIDILQMREI, the pKd was 6.38.

Turning to RLRYNLCKYL, the pKd is 9.52.

For NLLEQLIENI, the pKd was 5.84.

For LMELPVKTDI, the pKd was 6.01.

On to NVSRVVECLT, for which the pKd is 4.84.

As for YIALCKVTV, the pKd is 7.62.

As for FTILEYLYIM, the pKd is 5.49.

YVGDTSMMVI: the pKd was 6.66.

As for IMEIVSHLRA, the pKd is 6.40.

Take KVTVPTNDHI: the pKd was 5.91.

As to NVQSLIKFI, the pKd was 5.22.

The values above are taken from the Immune Epitope Database (IEDB).
